From article doi:10.1101/2025.06.22.660944, “Structures of MmpL complexes reveal the assembly and mechanism of this family of transporters” (bioRxiv, 2025) come the findings set out here.

Assay [1] concerns the target MmpL5 transporter (M. smegmatis, MSMEG_1382) (M. smegmatis) (UniProt A0QS80). As to the kind of experiment: cryo-EM structure; particle class 2: tripartite AcpM-MmpL5-MmpS5 trimeric complex, 2.81 Å; same LMNG-solubilized crude membrane sample, Build and Retrieve processing.
Assay [2] has the same target. Put plainly: cryo-EM structure; particle class 3: dipartite AcpM-MmpL5 trimeric complex, 3.37 Å; same LMNG-solubilized crude membrane sample, Build and Retrieve processing.
For assay [3], the target named is T1, MmpL5 transporter (M. smegmatis, MSMEG_1382) (M. smegmatis, UniProt A0QS80 1-967).
T1 construct: MmpL5, M. smegmatis, gene MSMEG_1382; 12 transmembrane helices and periplasmic subdomains PD1-PD3 (PD3 residues 499-684); Seen as a monomer (one chain per AcpM-MmpL5 unit in 2D arrays) and as a homotrimer (in AcpM-MmpL5-MmpS5 and trimeric AcpM-MmpL5) in the same sample; copies therefore left empty; also called mycobacterial membrane protein large 5; source: M. smegmatis MC2-155, co-expressed with …
T1 sequence (looked up): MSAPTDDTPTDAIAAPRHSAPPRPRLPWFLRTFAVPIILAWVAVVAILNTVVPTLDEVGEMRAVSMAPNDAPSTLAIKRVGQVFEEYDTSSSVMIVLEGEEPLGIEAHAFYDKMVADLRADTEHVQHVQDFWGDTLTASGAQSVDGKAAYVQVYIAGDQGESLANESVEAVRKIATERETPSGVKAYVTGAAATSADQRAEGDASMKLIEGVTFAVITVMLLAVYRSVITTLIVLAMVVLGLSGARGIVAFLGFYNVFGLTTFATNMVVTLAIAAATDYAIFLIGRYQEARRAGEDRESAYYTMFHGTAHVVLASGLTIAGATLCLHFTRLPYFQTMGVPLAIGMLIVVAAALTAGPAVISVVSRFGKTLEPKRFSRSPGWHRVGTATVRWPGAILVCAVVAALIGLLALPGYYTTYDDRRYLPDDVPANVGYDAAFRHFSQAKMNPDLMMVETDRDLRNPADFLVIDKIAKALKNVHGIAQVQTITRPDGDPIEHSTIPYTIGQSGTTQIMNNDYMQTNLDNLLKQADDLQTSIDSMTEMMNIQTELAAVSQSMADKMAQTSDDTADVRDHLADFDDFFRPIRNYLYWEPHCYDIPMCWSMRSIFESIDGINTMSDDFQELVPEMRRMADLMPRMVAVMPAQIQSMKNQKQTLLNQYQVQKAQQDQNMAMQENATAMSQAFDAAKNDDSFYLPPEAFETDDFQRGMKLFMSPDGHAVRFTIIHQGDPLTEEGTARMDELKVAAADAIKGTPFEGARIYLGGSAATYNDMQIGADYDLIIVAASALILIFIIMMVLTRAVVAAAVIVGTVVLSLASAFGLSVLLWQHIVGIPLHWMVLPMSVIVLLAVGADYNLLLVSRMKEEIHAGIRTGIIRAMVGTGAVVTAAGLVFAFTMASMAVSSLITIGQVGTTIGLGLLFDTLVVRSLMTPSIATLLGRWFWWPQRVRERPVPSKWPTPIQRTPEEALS
Put plainly: cryo-EM structure; particle class 2: tripartite AcpM-MmpL5-MmpS5 trimeric complex, 2.81 Å; same LMNG-solubilized crude membrane sample, Build and Retrieve processing. As to conditions: partners not purified.

Assay [4] addresses T1, MmpL5 transporter (M. smegmatis, …). Put plainly: cryo-EM structure; particle class 1: AcpM-MmpL5 monomeric units in 2D arrays, 3.35 Å; LMNG-solubilized crude M. smegmatis membranes enriched by sucrose cushion, Build and Retrieve processing. The note with it: partners not purified.

The stoichiometry N is a count of units in the complex or per binding partner. In the case of “MmpL5 transporter (M. smegmatis, MSMEG_1382) (from UniProt A0QS80 1-967) (natural protein)”, the stoichiometry N in assay [1] and in assay [2] was 3 in each case.

“MmpS5 adaptor (M. smegmatis, MSMEG_1381) (natural protein)”: in assay [1], the stoichiometry N (MmpS5 per MmpL5 (3:3)) is 1.

B1: meromycolate extension acyl carrier protein M (AcpM) (natural protein, UniProt A0R0B3 1-99, looked up)
chain: MAATQEEIIAGLAEIIEEVTGIEPSEVTPEKSFVDDLDIDSLSMVEIAVQTEDKYGVKIPDEDLAGLRTVGDVVAYIQKLEEENPEAAAALREKFAADQ
notes: AcpM, meromycolate extension acyl carrier protein M, of the M. smegmatis host; identified from the cryo-EM map (manual building, DeepTracer) and confirmed by proteomics; Not overexpressed; came along with MmpL5 from the host cells; source: endogenous, M. smegmatis MC2-155; found in the detergent-solubilized crude membranes enriched by sucrose cushion centrifugation
In the case of B1, the “stoichiometry N” value is 1 AcpM per MmpL5 (3:3) in assay [3] and 1 AcpM per MmpL5 (1:1) in assay [4].
